The results in this text go back to patent publication US20110150903A1 (Sanofi, published 2011).

Test [1] has as its target T1, hFGFR4-Histag (human, UniProt P22455 22-365).
T1 construct: also called SABVA4614
Kind of test: ELISA, HEK293 supernatant IgG on coated antigen.
From the text: (§1) The capture antigen was bound to Immulon-4 enzyme-linked plates (VWR Scientific Inc. Swedesboro, N.J.).

In test [2] the target is T2, hFGFR4(D2,D3)-Histag (human, UniProt P22455 22-365).
T2 construct: also called extracellular domain of FGF-R4 deleted of its D1 domain
Put plainly: ELISA, HEK293 supernatant IgG on coated antigen.
From the text: as §1

Test [3] deals with T3, mFGFR4-Histag (murine, UniProt Q03142 19-362).
T3 construct: also called murine protein mFGFR4; murine FGF-R4
Kind of test: SPR (BIAcore 3000).

Test [4] deals with T1, hFGFR4-Histag. Kind of test: SPR (BIAcore 3000).
Test [5] deals with T4, hFGFR3-Fc (human, UniProt P22607 23-375).
T4 construct: extracellular domain; Bought from R&D Systems; not shown: Fc domain of human IgG1
T4 sequence (looked up): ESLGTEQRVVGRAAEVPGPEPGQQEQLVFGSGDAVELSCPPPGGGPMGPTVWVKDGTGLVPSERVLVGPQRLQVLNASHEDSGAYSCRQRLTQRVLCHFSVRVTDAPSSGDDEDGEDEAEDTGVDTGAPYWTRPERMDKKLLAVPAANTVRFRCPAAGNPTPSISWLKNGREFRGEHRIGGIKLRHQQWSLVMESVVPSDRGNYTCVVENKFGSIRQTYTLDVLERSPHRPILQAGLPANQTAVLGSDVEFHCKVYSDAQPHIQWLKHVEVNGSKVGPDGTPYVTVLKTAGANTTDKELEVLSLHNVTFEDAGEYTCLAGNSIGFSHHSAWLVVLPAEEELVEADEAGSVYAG
Kind of test: phage Fab ELISA on coated antigen, anti-M13 detection.

For test [6], the target named is T2, hFGFR4(D2,D3)-Histag. The description is as above.
From the text: (§2) The specificity of each antibody is established by ELISA according to the following protocol: suspensions of phages displaying, at their surface, the antibodies in the Fab format are generated by infection of E. coli bacteria. The capture antigens were bound to Immulon-2 enzyme-linked dishes (VWR Scientific Inc. Swedesboro, N.J.).
In the next test the target is T5, hFGFR2-Fc (human).
T5 construct: Extracellular domain of human FGF-R2 IIIc fused C-terminally to the Fc domain of human IgG1
The description is as above.

Another test deals with T6, hFGFR1-Fc (human).
T6 construct: Extracellular domain of human FGF-R1 IIIc fused C-terminally to the Fc domain of human IgG1
The description is as above.

Test [7] addresses T4, hFGFR3-Fc. Put plainly: ELISA on plates coated with the 4 human FGF receptors, single condition, antibody concentration not given.
In test [8] the target is T7, human FGF-R4 recombinant extracellular domain protein, construct not named (human, UniProt P22455 22-369).
T7 construct: extracellular domain; also called the FGF-R4 protein; complete extracellular domain of human FGF-R4
Put plainly: SPR (BIAcore), antibody captured by anti-Fc antibody on the chip.

The target in test [9] is T3, mFGFR4-Histag. Put plainly: ELISA on coated FGF-R4 constructs, single condition, antibody concentration not given.

T3 sequence (Q03142 other isoform, or with tags, fused parts or gaps): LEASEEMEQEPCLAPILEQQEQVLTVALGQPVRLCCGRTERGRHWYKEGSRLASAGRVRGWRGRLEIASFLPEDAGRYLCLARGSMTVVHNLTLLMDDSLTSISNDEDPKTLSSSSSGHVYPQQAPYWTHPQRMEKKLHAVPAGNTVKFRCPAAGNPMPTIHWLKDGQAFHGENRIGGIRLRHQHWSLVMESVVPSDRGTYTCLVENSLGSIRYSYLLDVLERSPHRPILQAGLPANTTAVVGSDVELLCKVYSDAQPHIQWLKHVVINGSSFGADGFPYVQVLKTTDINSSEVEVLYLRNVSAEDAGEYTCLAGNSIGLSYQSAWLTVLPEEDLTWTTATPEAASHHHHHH
From the text for hFGFR1-Fc: as §2
From the text for hFGFR2-Fc: as §2

B1: anti-FGFR4 antibody clone 33 (human IgG1 format) (antibody, V domains shown)
VH: EVQLLESGGGLVQPGGSLRLSCAASGFTFSTYWMAWVRQAPGKGLEWVSVIGPSGGMTVYADSVKGRFTISRDNSKNTLYLQMNSLRAEDTAVYYCARINSGSSHFDYWGQGTLVTVSS
VL: QSVLTQPPSASGTPGQGVTISCSGSSSNIGSNSVNWYQQLPGAAPKLLIYSNNLRPSGVPARFSGSKSGTSASLAISGLRSEDEADYYCAAWDDGLDAYVVFGGGTKLTVLG
notes: As for clone 8: human IgG1 format from HEK293; also called antibody 33
Consider B1, for which the “OD signal at 450 nm” value with hFGFR4-Histag [1] stood at 3.75 OD 450 nm; in the test with hFGFR4(D2,D3)-Histag [2] it was 3.62 OD 450 nm. Also, the Kd with mFGFR4-Histag [3] was 0.692 nM; in the test with hFGFR4-Histag [4], 0.771 nM. The figures for the koff in the test with mFGFR4-Histag [3] and in the test with hFGFR4-Histag [4] were 0.000704 s⁻¹ and 0.000617 s⁻¹, respectively. In addition, the kon with mFGFR4-Histag [3] is 1.01e+06 M⁻¹ s⁻¹; in the test with hFGFR4-Histag [4], 805000 M⁻¹ s⁻¹.

B2: clone 33 in the Fab format displayed on phage (Fab, V domains shown)
VH: EVQLLESGGGLVQPGGSLRLSCAASGFTFSTYWMAWVRQAPGKGLEWVSVIGPSGGMTVYADSVKGRFTISRDNSKNTLYLQMNSLRAEDTAVYYCARINSGSSHFDYWGQGTLVTVSS
VL: QSVLTQPPSASGTPGQGVTISCSGSSSNIGSNSVNWYQQLPGAAPKLLIYSNNLRPSGVPARFSGSKSGTSASLAISGLRSEDEADYYCAAWDDGLDAYVVFGGGTKLTVLG
As to B2, the “ELISA signal (OD, 450 nm)” value in the test with hFGFR3-Fc [5] is -0.01 OD 450 nm; with hFGFR4(D2,D3)-Histag [6], 2.73 OD 450 nm; with hFGFR2-Fc it was 0 OD 450 nm; with hFGFR1-Fc it was 0 OD 450 nm.

B3: anti-FGFR4 antibody 64-12 (antibody, mouse IgG1, V domains shown)
VH: DVQLVESGGGLVQPGGSRKLSCAASGFTFSNFGMHWVRQAPEKGLEWVAYISSGSSTIYYADTVKGRFTISRDNPKNTLFLQMTSLRSEDTAMYYCARYDYDDDYYAMEYWGQGTSVTVSS
VL: QAVVTQESALTTSPGETVTLTCRSSTGAVTTSNYANWVQEKPDHLFTGLIGGTNNRAPGVPARFSGSLIGDKAALTITGAQTEDEAIYFCALWYSNHWVFGGGTKLTVLG
notes: also called clone 64-12; control antibody 64-12
B3: the binding result with hFGFR3-Fc [7] is recorded as “binds”. Besides, in [8], the dissociation constant (Kd) is 57.5 nM, the koff turned out to be 0.000602 s⁻¹ and the kon is 10500 M⁻¹ s⁻¹. For the same molecule, the binding result with mFGFR4-Histag [9] is on record as “binds”.

B4: anti-FGFR4 antibody clone 8 (human IgG1 format) (antibody, V domains shown)
VH: EVQLLESGGGLVQPGGSLRLSCAASGFTFSPYWMGWVRQAPGKGLEWVSVIWPSGGTTDYADSVKGRFTISRDNSKNTLYLQMNSLRAEDTAVYYCARVHPAGHNDHWGQGTLVTVSS
VL: QSELTQPPSASGTPGQRVTISCSGGYSNMGSNYAHWYQQLPGTAPKLLIYNNNQRPSGVPDRFSGSKSGTSASLAISGLRSEDEADYYCAAWDDSLSGPVFGGGTKLTVLG
notes: also called antibody 8
As to B4, the “OD signal at 450 nm” value in the test with hFGFR4-Histag [1] came to 3.9 OD 450 nm. Besides, in the test with hFGFR4(D2,D3)-Histag [2], the “OD signal at 450 nm” value came to 3.86 OD 450 nm. Also, in the test with mFGFR4-Histag [3], the Kd turned out to be 0.115 nM, the off-rate constant (koff) is 0.000136 s⁻¹ and the kon worked out at 1.2e+06 M⁻¹ s⁻¹. In the test with hFGFR4-Histag [4], this molecule had a dissociation constant Kd of 0.327 nM, a koff of 0.000292 s⁻¹ and a kon of 893000 M⁻¹ s⁻¹.

B5: clone 8 in the Fab format displayed on phage (Fab, V domains shown)
VH: EVQLLESGGGLVQPGGSLRLSCAASGFTFSPYWMGWVRQAPGKGLEWVSVIWPSGGTTDYADSVKGRFTISRDNSKNTLYLQMNSLRAEDTAVYYCARVHPAGHNDHWGQGTLVTVSS
VL: QSELTQPPSASGTPGQRVTISCSGGYSNMGSNYAHWYQQLPGTAPKLLIYNNNQRPSGVPDRFSGSKSGTSASLAISGLRSEDEADYYCAAWDDSLSGPVFGGGTKLTVLG
Turning to B5, the “ELISA signal (OD, 450 nm)” value with hFGFR3-Fc [5] is 0 OD 450 nm; with hFGFR4(D2,D3)-Histag [6], 2.55 OD 450 nm; with hFGFR2-Fc, 0 OD 450 nm; with hFGFR1-Fc, 0.05 OD 450 nm.

B6: anti-FGFR4 antibody clone 36 (human IgG1 format) (antibody, V domains shown)
VH: EVQLLESGGGLVQPGGSLRLSCAASGFTFSHYWMGWVRQAPGKGLEWVSVISPSGGLTIYADSVKGRFTISRDNSKNTLYLQMNSLRAEDTAVYYCARSSGWALDAFDIWGQGTMVTVSS
VL: QYELTQPPSASGTPGQRVTISCSGSSSNIGSNIVHWYQQLPGTAPKLLIYGNNQRPSGVPDRFSVSKSGSSASLAISGLQSEDEADYYCASWDDSLKAFYVFGTGTKVTVLG
notes: As for clone 8: human IgG1 format from HEK293; also called antibody 36
On to B6, for which the results for the “OD signal at 450 nm” value with hFGFR4-Histag [1] and with hFGFR4(D2,D3)-Histag [2] were 3.75 OD 450 nm and 3.62 OD 450 nm, respectively. For the same molecule, the results for the Kd with mFGFR4-Histag [3] and with hFGFR4-Histag [4] were 2.28 nM and 2.62 nM, respectively. The koff in the test with mFGFR4-Histag [3] came out at 0.000752 s⁻¹; with hFGFR4-Histag [4], 0.000631 s⁻¹. Also, the on-rate (kon) with mFGFR4-Histag [3] was found to be 330000 M⁻¹ s⁻¹; with hFGFR4-Histag [4] it was 244000 M⁻¹ s⁻¹.

B7: clone 36 in the Fab format displayed on phage (Fab, V domains shown)
VH: EVQLLESGGGLVQPGGSLRLSCAASGFTFSHYWMGWVRQAPGKGLEWVSVISPSGGLTIYADSVKGRFTISRDNSKNTLYLQMNSLRAEDTAVYYCARSSGWALDAFDIWGQGTMVTVSS
VL: QYELTQPPSASGTPGQRVTISCSGSSSNIGSNIVHWYQQLPGTAPKLLIYGNNQRPSGVPDRFSVSKSGSSASLAISGLQSEDEADYYCASWDDSLKAFYVFGTGTKVTVLG
Regarding B7, the “ELISA signal (OD, 450 nm)” value with hFGFR3-Fc [5] was -0.02 OD 450 nm; with hFGFR4(D2,D3)-Histag [6] it was 1.87 OD 450 nm; with hFGFR2-Fc it was -0.01 OD 450 nm; with hFGFR1-Fc, -0.01 OD 450 nm.

B8: anti-FGFR4 antibody clone 31 (human IgG1 format) (antibody, V domains shown)
VH: EVQLLESGGGLVQPGGSLRLSCAASGFTFSRYFMKWVRQAPGKGLEWVSWISPSGGLTEYADSVKGRFTISRDNSKNTLYLQMNSLRAEDTAVYYCARASYGAWLDYWGQGTLVTVSS
VL: DIQMTQSPSSLSLSPGERATLSCRASQSINRNLGWYQQKPGQAPRLLIYGASTRATGIPARFTGSGSGTEFSLTISSLQSEDYAIYYCQQYDNWPIIFGQGTRLEIKG
notes: As for clone 8: human IgG1 format from HEK293; also called antibody 31
For the molecule B8, in the test with hFGFR4-Histag [1], the “OD signal at 450 nm” value worked out at 3.86 OD 450 nm. Besides, the “OD signal at 450 nm” value in the test with hFGFR4(D2,D3)-Histag [2] came out at 3.74 OD 450 nm. Also, in the test with mFGFR4-Histag [3], binding was put at a Kd of 1.97 nM, the koff amounted to 0.0018 s⁻¹ and the on-rate constant (kon) is 914000 M⁻¹ s⁻¹. In the test with hFGFR4-Histag [4], the dissociation constant Kd was determined as 1.52 nM, the koff was 0.00098 s⁻¹ and the kon was 648000 M⁻¹ s⁻¹.

B9: clone 31 in the Fab format displayed on phage (Fab, V domains shown)
VH: EVQLLESGGGLVQPGGSLRLSCAASGFTFSRYFMKWVRQAPGKGLEWVSWISPSGGLTEYADSVKGRFTISRDNSKNTLYLQMNSLRAEDTAVYYCARASYGAWLDYWGQGTLVTVSS
VL: DIQMTQSPSSLSLSPGERATLSCRASQSINRNLGWYQQKPGQAPRLLIYGASTRATGIPARFTGSGSGTEFSLTISSLQSEDYAIYYCQQYDNWPIIFGQGTRLEIKG
For the molecule B9, the “ELISA signal (OD, 450 nm)” value with hFGFR3-Fc [5] came out at 0.01 OD 450 nm; with hFGFR4(D2,D3)-Histag [6] it was 2.52 OD 450 nm; with hFGFR2-Fc it was 0 OD 450 nm; with hFGFR1-Fc, 0 OD 450 nm.
